Molecular target: Mouse myosin 5a HMM (m5-HMM), heavy chain (mouse) (UniProt Q99104)
Assay: photo-bleaching step counting by TIRF microscopy; single molecules bound on a cover glass surface after exchange with Alexa488-CaM at 5:1 (Alexa488-CaM: myosin); step-wise photo-bleaching counted

Sequence of UniProt Q99104 (Q99104 whole entry): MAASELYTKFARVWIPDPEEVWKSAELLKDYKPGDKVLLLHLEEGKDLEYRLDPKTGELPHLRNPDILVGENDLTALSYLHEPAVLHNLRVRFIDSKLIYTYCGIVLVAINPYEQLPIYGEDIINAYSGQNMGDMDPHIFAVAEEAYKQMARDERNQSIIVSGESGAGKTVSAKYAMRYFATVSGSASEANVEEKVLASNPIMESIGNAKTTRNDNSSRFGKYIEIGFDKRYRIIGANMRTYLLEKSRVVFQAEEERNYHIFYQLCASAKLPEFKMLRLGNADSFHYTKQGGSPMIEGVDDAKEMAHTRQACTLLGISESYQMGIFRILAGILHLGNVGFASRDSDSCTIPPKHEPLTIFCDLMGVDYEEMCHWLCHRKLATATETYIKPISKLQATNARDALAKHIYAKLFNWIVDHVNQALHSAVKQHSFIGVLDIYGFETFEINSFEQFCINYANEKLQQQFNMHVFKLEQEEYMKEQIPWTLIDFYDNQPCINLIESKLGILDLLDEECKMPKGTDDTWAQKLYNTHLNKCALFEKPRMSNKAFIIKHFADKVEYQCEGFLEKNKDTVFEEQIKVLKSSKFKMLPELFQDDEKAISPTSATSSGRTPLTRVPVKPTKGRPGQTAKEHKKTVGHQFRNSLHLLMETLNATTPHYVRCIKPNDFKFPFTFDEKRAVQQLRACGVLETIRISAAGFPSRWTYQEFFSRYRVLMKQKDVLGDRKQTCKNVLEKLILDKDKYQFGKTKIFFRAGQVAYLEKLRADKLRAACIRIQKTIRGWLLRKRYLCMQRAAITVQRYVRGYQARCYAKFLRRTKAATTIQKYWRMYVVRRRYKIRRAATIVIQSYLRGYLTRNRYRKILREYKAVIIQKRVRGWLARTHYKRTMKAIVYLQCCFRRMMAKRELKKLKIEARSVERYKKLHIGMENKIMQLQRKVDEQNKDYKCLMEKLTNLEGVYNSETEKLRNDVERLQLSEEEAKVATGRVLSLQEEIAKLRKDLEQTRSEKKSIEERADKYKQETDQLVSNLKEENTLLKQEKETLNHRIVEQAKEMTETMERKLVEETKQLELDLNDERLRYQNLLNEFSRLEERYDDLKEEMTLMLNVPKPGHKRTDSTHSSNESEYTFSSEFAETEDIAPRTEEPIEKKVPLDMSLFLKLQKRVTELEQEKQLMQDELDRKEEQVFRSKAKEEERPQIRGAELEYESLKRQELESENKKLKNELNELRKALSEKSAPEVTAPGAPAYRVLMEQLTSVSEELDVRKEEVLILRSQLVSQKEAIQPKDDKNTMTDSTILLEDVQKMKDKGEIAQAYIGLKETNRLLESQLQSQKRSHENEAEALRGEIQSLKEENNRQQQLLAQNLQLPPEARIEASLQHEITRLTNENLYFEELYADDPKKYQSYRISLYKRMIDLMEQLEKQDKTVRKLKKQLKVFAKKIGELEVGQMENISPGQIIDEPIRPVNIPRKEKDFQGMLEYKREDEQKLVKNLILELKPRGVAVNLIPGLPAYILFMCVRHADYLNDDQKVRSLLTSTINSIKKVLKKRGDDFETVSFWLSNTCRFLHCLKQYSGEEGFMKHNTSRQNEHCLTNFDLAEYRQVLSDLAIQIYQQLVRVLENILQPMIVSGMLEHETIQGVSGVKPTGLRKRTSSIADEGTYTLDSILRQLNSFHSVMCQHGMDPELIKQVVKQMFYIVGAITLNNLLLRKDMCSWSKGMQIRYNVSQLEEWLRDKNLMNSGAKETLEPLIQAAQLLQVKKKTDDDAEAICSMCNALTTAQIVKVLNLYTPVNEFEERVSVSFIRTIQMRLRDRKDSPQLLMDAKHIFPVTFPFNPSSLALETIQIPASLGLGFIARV

| Alexa488-CaM molecules exchanged into one myosin molecule | stoichiometry N | Substance |
| --- | --- | --- |
| 2 | – | Alexa Fluor 488-labeled bovine calmodulin (from UniProt P62157 1-149) (natural protein) |
| – | 2 | Mouse myosin 5a HMM (m5-HMM), heavy chain (from UniProt Q99104 1-1853) (domain or fragment) |

— publication PMC3777900
